Measured values from US7179650.

Tests used:
[1] = molecular target: pGBT9-Fas (191-319AA): intracellular domain of Fas/APO-1 fused to the GAL4 DNA-binding domain (human); experiment: yeast two-hybrid β-galactosidase filter assay
[2] = molecular target: P53 (yeast two-hybrid control); experiment: yeast two-hybrid β-galactosidase filter assay (control pair)
Sequence of P53 (yeast two-hybrid control) (P02340 72-390): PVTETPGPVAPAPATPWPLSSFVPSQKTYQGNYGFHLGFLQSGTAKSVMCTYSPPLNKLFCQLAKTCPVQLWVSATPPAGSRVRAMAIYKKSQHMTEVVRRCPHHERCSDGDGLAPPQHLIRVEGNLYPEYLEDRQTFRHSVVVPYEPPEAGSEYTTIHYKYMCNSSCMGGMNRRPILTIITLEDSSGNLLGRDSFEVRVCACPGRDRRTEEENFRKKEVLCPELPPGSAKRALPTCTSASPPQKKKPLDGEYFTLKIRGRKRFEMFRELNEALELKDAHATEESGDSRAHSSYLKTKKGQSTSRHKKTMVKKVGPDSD

| Substance | time for the colony to turn blue [1] [h] | time for the colony to turn blue [2] [min] |
| --- | --- | --- |
| Clone 68: in-frame fusion of the Gal4 activation domain to the death domain of FADD/MORT1 (from UniProt Q13158 80-208) | < 3 | – |
| SV40 T antigen (yeast two-hybrid control) (from UniProt P03070 84-708) | – | < 30 |
| Sentrin-1 (SEQ ID NO:2) fused to the Gal4 activation-domain (from UniProt A7WLH8 1-101) | < 3 | – |
